From paper PMC5586252 (2017)
Where no end group is shown, it is not given here.

What was measured:
B′γ1 regulatory subunit [1] = molecular target: T1, B′γ1 regulatory subunit (UniProt Q13362-2 1-449); assay: ITC
B′γ1 regulatory subunit [2] = molecular target: T1, B′γ1 regulatory subunit; assay: BLI
B′α regulatory subunit = B′α regulatory subunit (UniProt Q15172 1-486); assay: BLI
PP2A-B′γ1 holoenzyme = PP2A-B′γ1 holoenzyme (UniProt P30153 1-589; P67775 1-309; Q13362-2 1-449); assay: BLI
PP2A-B′γ1 holoenzyme, sequence (P30153 whole entry, chain 1 of 3, other chains not shown): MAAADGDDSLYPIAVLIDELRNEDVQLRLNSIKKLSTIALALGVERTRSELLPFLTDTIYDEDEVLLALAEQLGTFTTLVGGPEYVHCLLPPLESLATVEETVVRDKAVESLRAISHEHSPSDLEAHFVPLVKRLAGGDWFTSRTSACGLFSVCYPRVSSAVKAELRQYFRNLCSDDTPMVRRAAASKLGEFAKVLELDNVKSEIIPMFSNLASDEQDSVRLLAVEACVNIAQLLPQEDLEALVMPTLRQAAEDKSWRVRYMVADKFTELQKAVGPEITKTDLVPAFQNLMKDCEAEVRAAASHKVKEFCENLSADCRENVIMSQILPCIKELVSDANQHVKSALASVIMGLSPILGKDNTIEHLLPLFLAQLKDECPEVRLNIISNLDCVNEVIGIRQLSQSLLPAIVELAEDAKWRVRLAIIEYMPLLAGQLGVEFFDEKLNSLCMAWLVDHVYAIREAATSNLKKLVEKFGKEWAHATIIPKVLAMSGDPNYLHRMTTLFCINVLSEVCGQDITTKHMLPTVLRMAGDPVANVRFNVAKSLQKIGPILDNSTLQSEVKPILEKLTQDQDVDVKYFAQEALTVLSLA
PP2A-B′γ1 holoenzyme, sequence (P67775 whole entry, chain 2 of 3, other chains not shown): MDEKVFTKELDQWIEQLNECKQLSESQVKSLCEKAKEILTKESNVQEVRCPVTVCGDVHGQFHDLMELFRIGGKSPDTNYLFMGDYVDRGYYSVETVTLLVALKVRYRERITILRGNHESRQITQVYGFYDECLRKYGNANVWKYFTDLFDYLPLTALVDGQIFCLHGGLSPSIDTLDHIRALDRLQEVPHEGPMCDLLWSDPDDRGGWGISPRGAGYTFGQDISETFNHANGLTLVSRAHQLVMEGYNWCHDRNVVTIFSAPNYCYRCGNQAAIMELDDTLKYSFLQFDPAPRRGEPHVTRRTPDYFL

B′α regulatory subunit, sequence (Q15172 whole entry): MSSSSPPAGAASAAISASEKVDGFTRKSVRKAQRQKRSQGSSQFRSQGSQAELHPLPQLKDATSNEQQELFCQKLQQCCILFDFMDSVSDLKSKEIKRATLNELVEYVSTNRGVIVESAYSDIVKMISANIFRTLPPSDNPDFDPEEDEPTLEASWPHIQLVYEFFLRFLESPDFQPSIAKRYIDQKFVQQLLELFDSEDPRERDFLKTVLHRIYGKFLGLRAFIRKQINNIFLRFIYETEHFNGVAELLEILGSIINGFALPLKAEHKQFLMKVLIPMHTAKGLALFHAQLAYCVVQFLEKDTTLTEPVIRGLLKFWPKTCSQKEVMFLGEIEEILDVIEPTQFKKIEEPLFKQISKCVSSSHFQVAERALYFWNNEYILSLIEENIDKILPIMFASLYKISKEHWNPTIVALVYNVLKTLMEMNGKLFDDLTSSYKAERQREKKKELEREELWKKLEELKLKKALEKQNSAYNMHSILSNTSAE

| Binder | Kd (B′γ1 regulatory subunit [1]) [nM] | Kd (B′γ1 regulatory subunit [2]) [nM] | Kd (B′α regulatory subunit) [nM] | Kd (PP2A-B′γ1 holoenzyme) [nM] |
| --- | --- | --- | --- | --- |
| KLPHVLSSIAEEEHHL [GST-tagged SYT16 peptide (B′-binding motif)] |  | 340 | 197 | 121 |
| LSTIDEEGE [Cyk4 S149E/S151E peptide (synthetic, phosphomimetic)] | 1300 |  |  |  |
| LETIPESEPSGMNRIL [GST-tagged DENND2C peptide (B′-binding motif)] |  | 530 |  | 221 |
| FQHNRKLESVAEEHEI [GST-tagged KIAA1524 (CIP2A) peptide (B′-binding motif)] |  | 121 | 330 | 310 |
| HVLYPIPESSSDSPLA [GST-tagged STON1 peptide (B′-binding motif)] |  | 3000 | 11800 |  |
| LSSIPEASEYDWRNYQ [GST-tagged C3orf67 peptide (B′-binding motif)] |  | 62 | 450 | 43 |
| IKKLSPIIEDSREATH [GST-tagged BUB1B peptide (B′-binding motif)] |  | 43 | 226 | 34 |

Further lines, results first:

| Kd (B′γ1 regulatory subunit [1]) [nM] | Kd (B′γ1 regulatory subunit [2]) [nM] | Kd (B′α regulatory subunit) [nM] | Kd (PP2A-B′γ1 holoenzyme) [nM] | Binder |
| --- | --- | --- | --- | --- |
| 22700 |  |  |  | LSTIDESGS (synthetic peptide; exact ends and termini not given, the printed motif 143-LSTIDESGS-151 is used as the core) [native Cyk4 peptide (synthetic)] |
| 1590 |  |  |  | NKRLSTIDEEGS [Cyk4 peptide S149E] |
|  | 161 | 490 |  | QNQFSEHDKTLYRIPE [GST-tagged TJP1 peptide (B′-binding motif)] |
|  | 2100 | 1090 | 320 | YQPLECIVEETEGKLN (not fully specified) [GST-tagged ANKHD1 peptide (B′-binding motif)] |
